Laboratory results taken from patent US20100158927A1.

Target: HLA-A2 molecules on the cell surface (total) (human)
Experiment: flow cytometry on 501A melanoma cells, PE-conjugated BB7.2

Substance: anti-HLA-A2 mAb BB7.2 (antibody)
- MFI: 56.4 MFI
